Laboratory results: patent US20250206828A1, “ANTI-ADENOSINE RECEPTOR (A2aR) ANTIBODIES AND THE USE THEREOF” (Adept Therapeutics Inc., priority 2022, published 2025)

B1: Hu3F6-H1/Hu3F6-L8 (antibody, human IgG1, V domains shown)
VH: QVQLVQSGAEVKKPGASVKVSCKASGFAFTSYWMNWVRQAPGQGLEWMGRIDPSDSEAHYHHKFWGRVTMTRDTSTSTVYMELSSLRSEDTAVYYCLRSLYGKGDYWGHGTTVTVSS
VL: DVVMTQSPLSLPVTPGEPASISCRSSQSLVHRNGNTYLEWYLQKPGQSPQLLIYKVSNRFSGVPDRFSGSGSGTDFTLKISRVEAEDVGVYYCYQGSHVPLTFGGGTKVEIK
notes: Human IgG1 FES (L234F, L235E, P331S) and human Ig kappa constant domains
B2: Hu3F6-H1/Hu3F6-L4 (antibody, human IgG1, V domains shown)
VH: QVQLVQSGAEVKKPGASVKVSCKASGFAFTSYWMNWVRQAPGQGLEWMGRIDPSDSEAHYHHKFWGRVTMTRDTSTSTVYMELSSLRSEDTAVYYCLRSLYGKGDYWGHGTTVTVSS
VL: DIVMTQTPLSLSVTPGQPASISCRSSQSLVHRNGNTYLEWYLQKPGQSPQLLIYKVSNRFSGVPDRFSGSGSGTDFTLKISRVEAEDVGVYYCYQGSHVPLTFGGGTKVEIK
notes: as for B1
B3: Hu3F6-H2/Hu3F6-L6 (antibody, human IgG1, V domains shown)
VH: EVQLVQSGAEVKKPGASVKVSCKTSGFAFTSYWMNWVRQAPGQGLEWMGRIDPSDSEAHYHHKFWGRVTMTVDTSTSTVYMELSSLRSEDTAVYYCLRSLYGKGDYWGHGTTVTVSS
VL: DIVMTQTPPSLPVNPGEPASISCRSSQSLVHRNGNTYLEWYLQKPGQSPQLLIYKVSNRFSGVPDRFSGSGSGSDFTLKISWVEAEDVGVYYCYQGSHVPLTFGGGTKVEIK
notes: as for B1
B4: Hu3F6-H3/Hu3F6-L7 (antibody, human IgG1, V domains shown)
VH: EVQLVQSGAEVKKPGASVKVSCKTSGFAFTSYWMNWVRQAPGQGLEWIGRIDPSDSEAHYHHKFWGRATLTVDTSSSTVYMELSSLRSEDTAVYYCLRSLYGKGDYWGHGTTVTVSS
VL: DVVMTQTPPSLPVNPGEPASISCRSSQSLVHRNGNTYLEWYLQKPGQSPQLLIYKVSNRFSGVPDRFSGSGSGSDFTLKISWVEAEDVGVYYCYQGSHVPLTFGGGTKVEIK
notes: as for B1
B5: Hu3F6-H2/Hu3F6-L1 (antibody, human IgG1, V domains shown)
VH: EVQLVQSGAEVKKPGASVKVSCKTSGFAFTSYWMNWVRQAPGQGLEWMGRIDPSDSEAHYHHKFWGRVTMTVDTSTSTVYMELSSLRSEDTAVYYCLRSLYGKGDYWGHGTTVTVSS
VL: DVVMTQSPLSLPVTLGQPASISCRSSQSLVHRNGNTYLEWFQQRPGQSPRRLIYKVSNRFSGVPDRFSGSGSGTDFTLKISRVEAEDVGVYYCYQGSHVPLTFGGGTKVEIK
notes: as for B1
B6: Hu3F6-H1/Hu3F6-L5 (antibody, human IgG1, V domains shown)
VH: QVQLVQSGAEVKKPGASVKVSCKASGFAFTSYWMNWVRQAPGQGLEWMGRIDPSDSEAHYHHKFWGRVTMTRDTSTSTVYMELSSLRSEDTAVYYCLRSLYGKGDYWGHGTTVTVSS
VL: DVVMTQTPLSLSVTPGQPASISCRSSQSLVHRNGNTYLEWYLQKPGQSPQLLIYKVSNRFSGVPDRFSGSGSGTDFTLKISRVEAEDVGVYYCYQGSHVPLTFGGGTKVEIK
notes: as for B1
B7: Hu3F6-H1/Hu3F6-L7 (antibody, human IgG1, V domains shown)
VH: QVQLVQSGAEVKKPGASVKVSCKASGFAFTSYWMNWVRQAPGQGLEWMGRIDPSDSEAHYHHKFWGRVTMTRDTSTSTVYMELSSLRSEDTAVYYCLRSLYGKGDYWGHGTTVTVSS
VL: DVVMTQTPPSLPVNPGEPASISCRSSQSLVHRNGNTYLEWYLQKPGQSPQLLIYKVSNRFSGVPDRFSGSGSGSDFTLKISWVEAEDVGVYYCYQGSHVPLTFGGGTKVEIK
notes: as for B1
B8: Hu3F6-H2/Hu3F6-L7 (antibody, human IgG1, V domains shown)
VH: EVQLVQSGAEVKKPGASVKVSCKTSGFAFTSYWMNWVRQAPGQGLEWMGRIDPSDSEAHYHHKFWGRVTMTVDTSTSTVYMELSSLRSEDTAVYYCLRSLYGKGDYWGHGTTVTVSS
VL: DVVMTQTPPSLPVNPGEPASISCRSSQSLVHRNGNTYLEWYLQKPGQSPQLLIYKVSNRFSGVPDRFSGSGSGSDFTLKISWVEAEDVGVYYCYQGSHVPLTFGGGTKVEIK
notes: as for B1
B9: Hu3F6-H1/Hu3F6-L2 (antibody, human IgG1, V domains shown)
VH: QVQLVQSGAEVKKPGASVKVSCKASGFAFTSYWMNWVRQAPGQGLEWMGRIDPSDSEAHYHHKFWGRVTMTRDTSTSTVYMELSSLRSEDTAVYYCLRSLYGKGDYWGHGTTVTVSS
VL: DVVMTQSPLSLPVTLGQPASISCRSSQSLVHRNGNTYLEWYQQRPGQSPRRLIYKVSNRFSGVPDRFSGSGSGTDFTLKISRVEAEDVGVYYCYQGSHVPLTFGGGTKVEIK
notes: as for B1
B10: Hu3F6-H1/Hu3F6-L1 (antibody, human IgG1, V domains shown)
VH: QVQLVQSGAEVKKPGASVKVSCKASGFAFTSYWMNWVRQAPGQGLEWMGRIDPSDSEAHYHHKFWGRVTMTRDTSTSTVYMELSSLRSEDTAVYYCLRSLYGKGDYWGHGTTVTVSS
VL: DVVMTQSPLSLPVTLGQPASISCRSSQSLVHRNGNTYLEWFQQRPGQSPRRLIYKVSNRFSGVPDRFSGSGSGTDFTLKISRVEAEDVGVYYCYQGSHVPLTFGGGTKVEIK
notes: as for B1
B11: Hu3F6-H6/Hu3F6-L8 (antibody, human IgG1, V domains shown)
VH: EVQLVQSGAEVKKPGESLRISCKASGFAFTSYWMNWVRQMPGKGLEWIGRIDPSDSEAHYHHKFWGHATLSVDKSSSTVYLQWSSLKASDTAMYYCLRSLYGKGDYWGHGTTVTVSS
VL: DVVMTQSPLSLPVTPGEPASISCRSSQSLVHRNGNTYLEWYLQKPGQSPQLLIYKVSNRFSGVPDRFSGSGSGTDFTLKISRVEAEDVGVYYCYQGSHVPLTFGGGTKVEIK
notes: as for B1
B12: Hu3F6-H1/Hu3F6-L6 (antibody, human IgG1, V domains shown)
VH: QVQLVQSGAEVKKPGASVKVSCKASGFAFTSYWMNWVRQAPGQGLEWMGRIDPSDSEAHYHHKFWGRVTMTRDTSTSTVYMELSSLRSEDTAVYYCLRSLYGKGDYWGHGTTVTVSS
VL: DIVMTQTPPSLPVNPGEPASISCRSSQSLVHRNGNTYLEWYLQKPGQSPQLLIYKVSNRFSGVPDRFSGSGSGSDFTLKISWVEAEDVGVYYCYQGSHVPLTFGGGTKVEIK
notes: as for B1
B13: Hu3F6-H3/Hu3F6-L6 (antibody, human IgG1, V domains shown)
VH: EVQLVQSGAEVKKPGASVKVSCKTSGFAFTSYWMNWVRQAPGQGLEWIGRIDPSDSEAHYHHKFWGRATLTVDTSSSTVYMELSSLRSEDTAVYYCLRSLYGKGDYWGHGTTVTVSS
VL: DIVMTQTPPSLPVNPGEPASISCRSSQSLVHRNGNTYLEWYLQKPGQSPQLLIYKVSNRFSGVPDRFSGSGSGSDFTLKISWVEAEDVGVYYCYQGSHVPLTFGGGTKVEIK
notes: as for B1
B14: Hu3F6-H1/Hu3F6-L3 (antibody, human IgG1, V domains shown)
VH: QVQLVQSGAEVKKPGASVKVSCKASGFAFTSYWMNWVRQAPGQGLEWMGRIDPSDSEAHYHHKFWGRVTMTRDTSTSTVYMELSSLRSEDTAVYYCLRSLYGKGDYWGHGTTVTVSS
VL: DVVMTQSPLSLPVTLGQPASISCRSSQSLVHRNGNTYLEWYQQRPGQSPRLLIYKVSNRFSGVPDRFSGSGSGTDFTLKISRVEAEDVGVYYCYQGSHVPLTFGGGTKVEIK
notes: as for B1
B15: Hu3F6-H6/Hu3F6-L3 (antibody, human IgG1, V domains shown)
VH: EVQLVQSGAEVKKPGESLRISCKASGFAFTSYWMNWVRQMPGKGLEWIGRIDPSDSEAHYHHKFWGHATLSVDKSSSTVYLQWSSLKASDTAMYYCLRSLYGKGDYWGHGTTVTVSS
VL: DVVMTQSPLSLPVTLGQPASISCRSSQSLVHRNGNTYLEWYQQRPGQSPRLLIYKVSNRFSGVPDRFSGSGSGTDFTLKISRVEAEDVGVYYCYQGSHVPLTFGGGTKVEIK
notes: as for B1
B16: Hu3F6-H6/Hu3F6-L1 (antibody, human IgG1, V domains shown)
VH: EVQLVQSGAEVKKPGESLRISCKASGFAFTSYWMNWVRQMPGKGLEWIGRIDPSDSEAHYHHKFWGHATLSVDKSSSTVYLQWSSLKASDTAMYYCLRSLYGKGDYWGHGTTVTVSS
VL: DVVMTQSPLSLPVTLGQPASISCRSSQSLVHRNGNTYLEWFQQRPGQSPRRLIYKVSNRFSGVPDRFSGSGSGTDFTLKISRVEAEDVGVYYCYQGSHVPLTFGGGTKVEIK
notes: as for B1
B17: Hu3F6-H4/Hu3F6-L8 (antibody, human IgG1, V domains shown)
VH: EVQLVQSGAEVKKPGASVKVSCKTSGFAFTSYWMNWVRQAPGQGLEWIGRIDPSDSEAHYHHKFWGRATLTVDKSSSTVYMELSSLRSEDTAVYYCLRSLYGKGDYWGHGTTVTVSS
VL: DVVMTQSPLSLPVTPGEPASISCRSSQSLVHRNGNTYLEWYLQKPGQSPQLLIYKVSNRFSGVPDRFSGSGSGTDFTLKISRVEAEDVGVYYCYQGSHVPLTFGGGTKVEIK
notes: as for B1
B18: Hu3F6-H6/Hu3F6-L2 (antibody, human IgG1, V domains shown)
VH: EVQLVQSGAEVKKPGESLRISCKASGFAFTSYWMNWVRQMPGKGLEWIGRIDPSDSEAHYHHKFWGHATLSVDKSSSTVYLQWSSLKASDTAMYYCLRSLYGKGDYWGHGTTVTVSS
VL: DVVMTQSPLSLPVTLGQPASISCRSSQSLVHRNGNTYLEWYQQRPGQSPRRLIYKVSNRFSGVPDRFSGSGSGTDFTLKISRVEAEDVGVYYCYQGSHVPLTFGGGTKVEIK
notes: as for B1
B19: Hu3F6-H6/Hu3F6-L4 (antibody, human IgG1, V domains shown)
VH: EVQLVQSGAEVKKPGESLRISCKASGFAFTSYWMNWVRQMPGKGLEWIGRIDPSDSEAHYHHKFWGHATLSVDKSSSTVYLQWSSLKASDTAMYYCLRSLYGKGDYWGHGTTVTVSS
VL: DIVMTQTPLSLSVTPGQPASISCRSSQSLVHRNGNTYLEWYLQKPGQSPQLLIYKVSNRFSGVPDRFSGSGSGTDFTLKISRVEAEDVGVYYCYQGSHVPLTFGGGTKVEIK
notes: as for B1
B20: Hu3F6-H6/Hu3F6-L5 (antibody, human IgG1, V domains shown)
VH: EVQLVQSGAEVKKPGESLRISCKASGFAFTSYWMNWVRQMPGKGLEWIGRIDPSDSEAHYHHKFWGHATLSVDKSSSTVYLQWSSLKASDTAMYYCLRSLYGKGDYWGHGTTVTVSS
VL: DVVMTQTPLSLSVTPGQPASISCRSSQSLVHRNGNTYLEWYLQKPGQSPQLLIYKVSNRFSGVPDRFSGSGSGTDFTLKISRVEAEDVGVYYCYQGSHVPLTFGGGTKVEIK
notes: as for B1
B21: Hu3F6-H6/Hu3F6-L6 (antibody, human IgG1, V domains shown)
VH: EVQLVQSGAEVKKPGESLRISCKASGFAFTSYWMNWVRQMPGKGLEWIGRIDPSDSEAHYHHKFWGHATLSVDKSSSTVYLQWSSLKASDTAMYYCLRSLYGKGDYWGHGTTVTVSS
VL: DIVMTQTPPSLPVNPGEPASISCRSSQSLVHRNGNTYLEWYLQKPGQSPQLLIYKVSNRFSGVPDRFSGSGSGSDFTLKISWVEAEDVGVYYCYQGSHVPLTFGGGTKVEIK
notes: as for B1
B22: Hu3F6-H6/Hu3F6-L7 (antibody, human IgG1, V domains shown)
VH: EVQLVQSGAEVKKPGESLRISCKASGFAFTSYWMNWVRQMPGKGLEWIGRIDPSDSEAHYHHKFWGHATLSVDKSSSTVYLQWSSLKASDTAMYYCLRSLYGKGDYWGHGTTVTVSS
VL: DVVMTQTPPSLPVNPGEPASISCRSSQSLVHRNGNTYLEWYLQKPGQSPQLLIYKVSNRFSGVPDRFSGSGSGSDFTLKISWVEAEDVGVYYCYQGSHVPLTFGGGTKVEIK
notes: as for B1

Biological target: T1, human adenosine A2A receptor (A2aR) (human, UniProt P29274 1-412)
T1 construct: Assays used HEK293 cells stably overexpressing human A2aR (BPS Bioscience 79381), human A2aR-expressing CHO cells, or endogenous A2aR on human PBMC; also called human A2aR; hA2aR
T1 sequence (P29274 whole entry): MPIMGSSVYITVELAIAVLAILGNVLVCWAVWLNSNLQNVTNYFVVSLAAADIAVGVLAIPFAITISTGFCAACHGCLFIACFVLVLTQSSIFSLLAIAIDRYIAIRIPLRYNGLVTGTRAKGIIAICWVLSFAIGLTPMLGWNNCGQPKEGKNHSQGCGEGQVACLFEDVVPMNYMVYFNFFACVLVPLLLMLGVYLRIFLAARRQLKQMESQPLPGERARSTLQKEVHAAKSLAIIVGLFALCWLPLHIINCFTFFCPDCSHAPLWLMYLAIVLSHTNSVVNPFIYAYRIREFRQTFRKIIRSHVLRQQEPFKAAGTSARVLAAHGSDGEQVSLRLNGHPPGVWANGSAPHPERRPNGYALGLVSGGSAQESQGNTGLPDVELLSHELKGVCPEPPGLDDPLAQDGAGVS
Test: flow cytometry, HEK293-hA2aR cells, supernatant 1 ug/ml

In order of falling MFI:
1. B15  2090 MFI
2. B11  2000 MFI
3. B19  2000 MFI
4. B20  1980 MFI
5. B17  1710 MFI
6. B13  1660 MFI
7. B14  1600 MFI
8. B3  1580 MFI
9. B4  1510 MFI
10. B6  1500 MFI
11. B1  1420 MFI
12. B2  1320 MFI
13. B8  1180 MFI
14. B22  1170 MFI
15. B21  979 MFI
16. B12  313 MFI
17. B7  290 MFI
18. B16  27 MFI
19. B18  17 MFI
20. B10  15 MFI
21. B9  14 MFI
22. B5  13 MFI
